# Biological target: T1, Chlamydomonas IFT172 (intraflagellar transport protein 172), recombinant full-length, C-terminal His-tag (Chlamydomonas reinhardtii, UniProt Q5DM57 1-1755)
# T1 construct: Gene synthesised or sub-cloned into MCS2 of the pFL vector; no removal of the His-tag is described; The detergent-free monomer was used in the liposome sedimentation assays; also called IFT172-His tag; IFT172 monomer; source: HighFive insect cells (baculovirus), purified (His60 Ni Resin, SEC on Superose 6; with 0.1% DDM for the monomer, or with HiTrapQ-Sepharose anion exchange for the …)
# T1 sequence (Q5DM57 whole entry): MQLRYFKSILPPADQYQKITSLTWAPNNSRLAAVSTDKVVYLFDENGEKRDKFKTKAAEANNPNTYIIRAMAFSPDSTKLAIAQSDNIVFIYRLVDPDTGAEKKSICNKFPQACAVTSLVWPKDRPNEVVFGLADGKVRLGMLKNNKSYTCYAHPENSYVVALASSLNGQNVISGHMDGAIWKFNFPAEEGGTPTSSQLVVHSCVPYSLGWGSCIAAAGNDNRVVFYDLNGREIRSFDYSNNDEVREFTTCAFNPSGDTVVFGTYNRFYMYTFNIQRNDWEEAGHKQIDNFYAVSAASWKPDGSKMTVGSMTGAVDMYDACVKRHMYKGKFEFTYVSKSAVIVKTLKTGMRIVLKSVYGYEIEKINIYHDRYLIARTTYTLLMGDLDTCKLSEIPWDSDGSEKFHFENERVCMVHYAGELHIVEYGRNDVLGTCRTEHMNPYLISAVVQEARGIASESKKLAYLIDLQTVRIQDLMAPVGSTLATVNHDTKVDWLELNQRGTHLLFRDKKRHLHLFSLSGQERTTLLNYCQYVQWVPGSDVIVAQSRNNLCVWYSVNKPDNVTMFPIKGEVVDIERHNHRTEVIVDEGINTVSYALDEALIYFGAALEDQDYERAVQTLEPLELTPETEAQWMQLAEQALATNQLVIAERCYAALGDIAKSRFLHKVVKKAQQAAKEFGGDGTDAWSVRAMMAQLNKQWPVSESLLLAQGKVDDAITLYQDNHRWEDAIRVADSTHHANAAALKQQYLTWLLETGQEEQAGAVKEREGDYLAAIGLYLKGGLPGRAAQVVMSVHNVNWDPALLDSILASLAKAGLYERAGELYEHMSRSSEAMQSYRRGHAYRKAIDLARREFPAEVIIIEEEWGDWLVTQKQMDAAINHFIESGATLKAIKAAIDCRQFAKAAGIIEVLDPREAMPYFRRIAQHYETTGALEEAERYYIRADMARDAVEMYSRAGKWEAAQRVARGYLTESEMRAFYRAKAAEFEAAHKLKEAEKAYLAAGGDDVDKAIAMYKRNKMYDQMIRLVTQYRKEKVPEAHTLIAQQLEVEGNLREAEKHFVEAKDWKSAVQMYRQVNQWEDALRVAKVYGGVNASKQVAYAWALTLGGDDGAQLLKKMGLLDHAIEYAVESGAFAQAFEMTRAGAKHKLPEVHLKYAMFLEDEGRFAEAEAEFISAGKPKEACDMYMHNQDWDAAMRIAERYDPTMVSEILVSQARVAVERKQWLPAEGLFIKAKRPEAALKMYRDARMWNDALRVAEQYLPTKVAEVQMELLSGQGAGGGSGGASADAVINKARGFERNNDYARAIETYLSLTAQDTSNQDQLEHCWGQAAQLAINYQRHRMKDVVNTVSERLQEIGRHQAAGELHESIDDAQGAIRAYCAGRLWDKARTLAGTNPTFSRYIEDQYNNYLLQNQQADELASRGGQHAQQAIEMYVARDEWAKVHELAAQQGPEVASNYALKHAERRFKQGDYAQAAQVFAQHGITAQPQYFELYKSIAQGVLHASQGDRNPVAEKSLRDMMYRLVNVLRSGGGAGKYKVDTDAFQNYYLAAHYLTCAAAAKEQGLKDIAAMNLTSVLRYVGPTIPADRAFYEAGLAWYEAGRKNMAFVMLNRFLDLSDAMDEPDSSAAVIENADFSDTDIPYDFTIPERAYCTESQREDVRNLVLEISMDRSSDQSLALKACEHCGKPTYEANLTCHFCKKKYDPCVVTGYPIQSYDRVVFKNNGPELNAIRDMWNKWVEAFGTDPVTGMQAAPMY
# Test: co-sedimentation; liposome co-sedimentation: IFT172 with Folch fraction I MLV and rising amounts of IFT57; 20 mM Hepes, 150 mM NaCl, pH 7.5, 15 min on ice, 135,000 xg for 20 min, supernatant and pellet by SDS-PAGE; binding of IFT57 to IFT172 is read from the loss of IFT172 from the liposome pellet
# Conditions: both partners purified
binder,measurement,value
"Chlamydomonas IFT57 (intraflagellar transport protein 57), full-length (natural protein, UniProt Q2XQY7 1-469, looked up, IFT57 from Chlamydomonas, full length, cloned into the pEC vector; source: E. coli BL21 (DE3), purified (Ni-NTA, TEV cleavage, HiTrapQ-Sepharose, SEC); not shown: His tag, N-terminal, cleaved) MSSKRGGRSSLAKAPEEAVNGEAFAPEASPPPPGDDGDAGGEDGGAPAPPPPPATKGGPVAVGRSLEIQTTPDVCMEMLADKLKLLNYEADFCRKKKPYRKPLSRLYFAVPLANSSEQFFYFTSLATWLLGLAGVELPAPKEFDDPNLTCQNILGAVKKLGFAPPSYHPTKLTVGNGKEVVGVLDGLVDFVLERRHHKYSRPAYGNDGQPEEGVQLDDEAEAAAMEGADELAMPAQNQADDDEEEEGVYVDPGRGDAAGPGTGASAAMDAEKAVLVSKVDPTLWKIELERVAPKLRITIAADSKDWRSHLDEAHQHKEVISKAWPDSKTSLERLRADLNGTLEKLQTREKFLNEQFESLMQQYRAARTTFTDVQETYNRKTEAVADRNQEMHRIGETLEEVKAMMDEKGSNIADATPVARIKTAIKQLNKELHDMEVRIGVVSHTLLQLSLRNKRLLQAQAALSDEEED",binding result,binds
